Measurements: paper PMC8809517, “Cofactor-independent RNA editing by a synthetic S-type PPR protein”
Changes are numbered by the printed parent chain.

T1: GFP-9S library array, motif 4 ND N98I (synthetic construct, N98I)
T1 chain: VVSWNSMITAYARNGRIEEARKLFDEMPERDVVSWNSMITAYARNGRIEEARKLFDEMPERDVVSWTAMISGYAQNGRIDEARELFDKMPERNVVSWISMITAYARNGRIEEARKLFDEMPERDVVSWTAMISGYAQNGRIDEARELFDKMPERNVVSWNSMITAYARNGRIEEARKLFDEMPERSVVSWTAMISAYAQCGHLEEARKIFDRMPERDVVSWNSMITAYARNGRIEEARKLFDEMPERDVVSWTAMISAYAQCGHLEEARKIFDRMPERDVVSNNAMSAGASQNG

T2: GFP-9S library array, motif 4 ND N98D;D124S (synthetic construct, N98D;D124S)
T2 chain: T1 chain with I98D, D124S

T3: GFP-9S library array, motif 4 ND N98M;D124E (synthetic construct, N98M;D124E)
T3 chain: T1 chain with I98M, D124E

T4: GFP-9S library array, motif 4 ND N98I;D124L (synthetic construct, N98I;D124L)
T4 chain: T1 chain with D124L

T5: GFP-9S library array, motif 4 ND N98Q;D124G (synthetic construct, N98Q;D124G)
T5 chain: T1 chain with I98Q, D124G

B1: IR-rpoA-A (ssRNA)
RNA: AUUAAACGUGA
B2: IR-rpoA-U (ssRNA)
RNA: AUUAUACGUGA
B3: Cy5-rpoA-G (ssRNA)
RNA: AUUAGACGUGA
B4: Cy5-rpoA (ssRNA)
RNA: AUUACACGUGA

Tests used:
Assay in all cases: high-throughput RNA pulldown from lysate on Ni-NTA beads; HRP: 50 mM Tris pH 8, 150 mM NaCl, 1 mM beta-mercaptoethanol, 50 ug/ml BSA, 3 ug/ml yeast RNA, 0.5% heparin; ITC and FP: Tris pH 8, 200 mM KCl, 5% glycerol; MST: 50 mM Tris pH 8, 200 mM NaCl, 1 mM DTT, BSA, heparin, 0.05% Tween 20
Details in all cases: tags: N-terminal His-eGFP
[1] = target: T1, GFP-9S library array, motif 4 ND N98I
[2] = target: T2, GFP-9S library array, motif 4 ND …
[3] = target: T3, GFP-9S library array, motif 4 ND …
[4] = target: T4, GFP-9S library array, motif 4 ND …
[5] = target: T5, GFP-9S library array, motif 4 ND …

Binder | Kd ([1]; label: 5' IRDye 800CW) | Kd ([2]; label: 5' IRDye 800CW) | Kd ([3]; label: 5' IRDye 800CW) | Kd ([4]; label: 5' IRDye 800CW) | Kd ([5]; label: 5' IRDye 800CW) | Kd ([1]; label: 5' Cy5) | Kd ([2]; label: 5' Cy5) | Kd ([3]; label: 5' Cy5) | Kd ([4]; label: 5' Cy5) | Kd ([5]; label: 5' Cy5)
B1 | 175 nM | 759 nM | 264 nM | 343 nM | 373 nM | – | – | – | – | –
B2 | 53.5 nM | 470 nM | 158 nM | 202 nM | 321 nM | – | – | – | – | –
B3 | – | – | – | – | – | 127 nM | 260 nM | 89 nM | 128 nM | 166 nM
B4 | – | – | – | – | – | 153 nM | 401 nM | 117 nM | 106 nM | 154 nM
